The nanobody polyreactivity screen of Harvey et al. (2022)

Test: yeast display, Sf9 membrane polyspecificity reagent, FACS + sequencing; frameworks hold sequencing errors
Method in brief: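 After 36–48 hours of galactose induction, yeast (Saccharomyces cerevisiae BJ5465) displaying a synthetic nanobody library were stained at 4 °C for 1 hour with 10% biotinylated, detergent-solubilized Sf9 membrane reagent. Streptavidin microbeads enriched the stained cells before FACS sorting into low and high (top ~1%) gates on anti-HA and streptavidin fluorescence. Each clone's polyreactivity label reflects its gate of origin.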

Sequence | polyreactivity (PSR sort gate)
PVQLVESGGGLVQAGGSLRLSCAASGSTFTSNAMGWYRQAPGKERELVAAIDRNGGRTYYADSVNGRFTISRDNAKNTVYLQMNSMKPEDTEVYYCAVLSKYRRTFGSWGQGTLVTVSS | high polyreactivity
QVQLVESGGGLVQAGGSLRLSCAASGSTFRWNAMGWYRQAPGKERELVASITSGGSTNYADSVKGRFTISRDNAKNTVYLQMNSLKPEDTAVYYCNADVRRSTYYVWLYDYWGQGTQVTVSS | low polyreactivity
QVQLVESGGGLVQAGGSLRLSCAASGSIFPGYAMGWYRQAPGKERELVATITWSGGSTYYADSVKGRFTISRDNAMNTVYLQMNSLKPEDTAVYYCNADSNWYYQLNYYGLYDYWGQGTQVTVSS | low polyreactivity
QVQLVESGGGLVQAGGSLRLSCAASGRIFRQYTMGWNRQAPGKERELVAAITGTRGSTYYADSVKGRFTISRDNAKNTVYLQMNSLKPVDTAVYSCDADYSARYGYWGQGTQVTVSS | high polyreactivity
QVQLVESGGGLVQAGGSLRLSCAASGRTVGYNAMGWYRQAPGKERELVAAISRSGDSTYYADSVKGRFTISRDNAKNTVYLQMNSLKPEDTAVYYCATRYVTTGYDYWGQGTQVTVSS | low polyreactivity
QVQLVESGGGLDQAGGSLRLSCVASGSIFRGNAMGWYRQAPGKERELVASISKGGGSTYYADSVKGRFIISRDNAKNTVYLQMNSLKPEDTAVYYCNAQFYNSGWSFKYYYWGQGTQVTVSS | low polyreactivity
QVQLQESGGGLVQSGGSLRLSCAASGYISSWYPMGWYRHAPGKEREFVATIAPGATTYYADSVKGRFTISRDYAKNTVYLQMNSLKPEDTAVYYCAAGPENNDFYSYWGQGTQVTVSS | low polyreactivity
QVQLVESGGGLVQAGGSLRLSCAASGRIFQTYAMGWYRQAPGKERDLVASITSGVDTYYADSVKGRFTISRDNAKNTVYLQMNSLKPEDNAVYYCAAEPYRTVTAYRYSLYWYNYWGQGTQVTVSS | high polyreactivity
QVQLVESGRGLVQAGGSLRLSCAASGFTFSLNAMGWYRQAPGKERELVAGISIGGSTNYADSVKGRFTISRDNAKNTVYLQMNSLKPEDTAVYYCNAYYWSATWYFAAWDYYYWGQGTQVTVSS | high polyreactivity
QVQRVESGGGLVQAAGSLRLSCAASGRTFIYYAKGWYRHEPGKERELVAGISRNGGRTYYADSVKGRFTISRDNAKNTVYLQMNSLKPEDTAVYYCNAYPPSRHDYCGQGTQVTVSS | high polyreactivity
QVQLVESGGGLVQAGGSLRLSCAASGSTFGSYAMGWYRQAAGKERELVAGNSWSGGRTYYADSVKGRFTISRDNAKNTVYLQMNSLKPEDTAVYYCARDTGYYYARYNYWGQGTQVTVSS | low polyreactivity
QVQLVESGGGLVQAGGSLRLAVLPPDLPSTLNDMGWYRQAPGKERELVAAITRGGSTNYADSVKGRFTISRDNAKNTVYLQMNSLKPEDTAVYDCAAPYAGWRDGGDYWGQGTQVTVSS | low polyreactivity
QVQLVESGGGLVQAGGSLRLSCAASGSTFSYYAMGWYRQAPGKERELVASITWNGARTYYADSVKGRFTISRDNAKNTVYLQMNSLKPEDTAVYYCADRHKYAFWTAFGNYWGQGTQVTVSS | high polyreactivity
QVQLVESGGGLVQAGGSLRLSCAASGSIFFGNAMGWYRQAPGKERELVAAIDGTGASTYYADSVKGRFTISRDNAKNTVYLQMNSLKPEDTAVYYCNKALTSKDYPVRTVERDYWGQGTKVTVSS | low polyreactivity
QVQLVESGGGLVQAGGSLRLSCAASGSTFRVYAMGWYRQAPGKERELVATISWGGGRTYYADSVKGRFTISRDNAKNTVYLQMNSLKPEDTAVYYCAADQRWTTDQPTAGDYWGQGTQVTVSS | low polyreactivity
QVQLVESGGGLVQAGGSLRLSCAASGSIFRWNAMGWYRQAPGKERELVAGIRWDSGSTYYADSVKGRFTISRDNAKNTVYLQMNSLKPEDTAVYYCAADLFDFLLIDGFAVVTYGYWGQGTQVNVSS | low polyreactivity

Sequence | polyreactivity (PSR sort gate)
QVQLVESGGGLVQAGGSLRLSCAASGSTFSYNAMGWYRQAPGKERELVAAIDANGGSTYYADSVKGRFTISRDNAKNTVYVQMNSLKPEDTAVYYCAAAGYWYYYVPNDSWGQGTQVTVSS | low polyreactivity
QVHLVESGGGLVQAGGSLRLSCAASGRIFRKYAIGWYRQAPGKERELVAAISFSGTSTYYADSVKGRFTISRDNAKNTVYLQMNSLKPEDTAVYYCAAVYRQGTGYVDYDSWGQGTQVTVSS | low polyreactivity
QVQLVESGGGLVQAGGSLRLSCAASGRTFYYYVMGWYRQAPGKERELVAAITKSTGSTYYADSVKGRFTISRDNAKNTVYLQMNSLKPEDTAVYYCAAAYWITTPYDYWGQGTQVTVSS | low polyreactivity
QVQLVESGGGLVQAGGSLRLSCAASGSTSTSNAMGWYRQAPGKERELVAVISSGGSTYYADSVKGRFTISRDNAKNTVYLQMNSLKPEDTAVYYCSADARIHWFVVRYEYWGQGTQVTVSS | low polyreactivity
QDQLVESGGGLVQAGGSLRLSCAASGFIFGNYALGWYRQAPGKERELVATITWRGGSTYYADSVKGRFTISRDNAKNTVYLQMNSLKPEDTAVYYCARPYASYSSFYYYGYWGQGTQVTVSS | high polyreactivity
QVQLVESGGGLVQAGGSLRLSCAASESIFVRNAMGWYRQAPGKERELVASITYSGSRTYYADSVKGRFTISRDNAKNTVYLQMNRLKPEDTAVYYCAKVRVLVDKWSTFYEYYYWVQGTQVTVSS | low polyreactivity
QGQLVESGGGLVQAGGSLRLSCAASGSTFPPYRMGWYRQAPGKERELVAAITWRGGRTYYADSVKGRFTISRDNAKNTVYLQMNSLKREDTAVYYCAADYPYQYGRYAGSPGAGRYYWGQGTQVTVSS | high polyreactivity
QVQIVESGGGLVQAGGSLSLSCAASGFTLVGYAMGWYRQAPGKERELVAAISSGGRTKYADSVKGRFTISRDNAKNTVYLQMNSLKPEVTAVFYCAAPYNVRWRYGYWGQGTQVTVSS | high polyreactivity
QVQLVESGGGLVQAGGSLRLSCAASGFIYGANAMGWYRQAPGKERALVAAISWNGGRTYYADSVKGRFTISRDNAKKTVYLQMNSLKPEDTAVYYCNARSWYSFQPQDYWGQGTQVTVSW | high polyreactivity
QVQLVESGGGLVQAGGSLRLSCAASGRTFWNYAMGWYRQAPGKERELVAVIRFSDGSTYYADSVKGRFTISRDNAKNTGYLQMISLKPEDTAVFYCAAKGPRRWGSGFDYWGQGTQVTVSS | low polyreactivity
QVQLVESGGGLVQAGGSLRLSCAPSGRIFTGYAMGWYRPEPGQEWELVAASTSSGGSTYYADSVKGRVTISRDYAKNTVYLQMNSLKPEDTAVYYCNKVGRPRYNYWGQGTEVTVSS | high polyreactivity
QVQLVESGGGLVQAGGSLRLSCAASGSILGINVMGWYRPAPGKERELVAAISRRGGSTYYADSVKGRFTISRDNAKNTVYLQMNSLKPEDTAVYYCAATRTARTMGYWGQGTQVTVSS | high polyreactivity
QVQLVESGGGLVQAGGSLRLSCAASGSTFWFYAMGWYRQAPGKERELVAVISNYGSTYYADSVKGRFTISRDNAKNTVYLQMNSLITEDTAVYSCNKDGGGDSYWYDYWGQGTQVTVSS | low polyreactivity
QVQLVESGGGLVQAGGSLRLSCAASGSIFAYNAMGWYRQAPGKEREFVAAISQCGGRTYYADSVKGRFTISRDNAKTTVYLQMNSLKPEDTAVYYCATDGIRLTRHRDYDYWGQGTQVTVSS | low polyreactivity
QVQLVESGGGLVQAGGSLRLSCAASGSIFGDNAMGWYRQAPGKERELVAAINYNGGRTYYADSVKGRFTISRDNAKNTVYLQMNSLKPEDTAVYYCAKDNYQAPVQQYPFDYWGQGTQVTVSS | low polyreactivity
